Our source for the pEC50 of CXCL11 for β-arrestin1-YFP recruitment to CXCR7-RLuc (BRET, HEK293T) and pEC50 of CXCL11 for β-arrestin2-YFP recruitment to CXCR7-RLuc (BRET, HEK293T) values is paper PMC3311620.

The assay concerns the target CXCR7-RLuc (human) (UniProt P25106).
Chain of UniProt P25106 (P25106 whole entry): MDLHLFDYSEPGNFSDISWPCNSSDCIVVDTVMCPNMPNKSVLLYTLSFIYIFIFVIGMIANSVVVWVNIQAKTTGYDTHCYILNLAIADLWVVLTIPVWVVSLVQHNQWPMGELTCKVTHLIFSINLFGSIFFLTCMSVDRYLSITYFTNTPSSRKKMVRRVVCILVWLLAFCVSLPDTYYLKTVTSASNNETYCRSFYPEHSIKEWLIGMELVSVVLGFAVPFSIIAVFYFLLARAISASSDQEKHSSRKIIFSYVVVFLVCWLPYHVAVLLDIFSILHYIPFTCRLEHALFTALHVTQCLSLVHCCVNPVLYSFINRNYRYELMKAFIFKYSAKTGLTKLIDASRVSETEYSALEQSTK

B1: CXCL11 (I-TAC) (ligand)
chain: FPMFKRGRCLCIGPGVKAVKVADIEKASIMYPSNNCDKIEVIITLKENKGQRCLNPKSKQARLIIKKVERKNF
Consider B1, for which the pEC50 of CXCL11 for β-arrestin1-YFP recruitment to CXCR7-RLuc (BRET, HEK293T) was found to be 8.7 and the pEC50 of CXCL11 for β-arrestin2-YFP recruitment to CXCR7-RLuc (BRET, HEK293T) came to 8.5.
